B1: BCY16872 (peptide)
peptide: ACNAVLCSW[Aib]RANSFCA[Sar][Sar][Sar][Sar][Sar][Sar]K(fluorescein)
modifications: linker 2-7-16 via TATA
B2: BCY15422 (peptide)
peptide: ACLEVYKCWRGKCA[Sar][Sar][Sar][Sar][Sar][Sar]K(fluorescein)
modifications: linker 2-8-13 via TATA
B3: BCY15283 (peptide)
peptide: ACVRSHCSSLLPRIHCA[Sar][Sar][Sar][Sar][Sar][Sar]K(fluorescein)
modifications: linker 2-7-16 via TATA
B4: BCY15419 (peptide)
peptide: ACAPILCRWAERQGYCA[Sar][Sar][Sar][Sar][Sar][Sar]K(fluorescein)
modifications: linker 2-7-16 via TATA
B5: BCY16866 (peptide)
peptide: ACNAVLCS[1Nal]ARANSFCA[Sar][Sar][Sar][Sar][Sar][Sar]K(fluorescein)
modifications: linker 2-7-16 via TATA
B6: BCY16867 (peptide)
peptide: ACNAVLCS[2Nal]ARANSFCA[Sar][Sar][Sar][Sar][Sar][Sar]K(fluorescein)
modifications: linker 2-7-16 via TATA
B7: BCY16871 (peptide)
peptide: ACAN[Aib]VLCSWARANSFCA[Sar][Sar][Sar][Sar][Sar][Sar]K(fluorescein)
modifications: linker 2-8-17 via TATA
B8: BCY15288 (peptide)
peptide: ACHKFPCRDPQQYLFCA[Sar][Sar][Sar][Sar][Sar][Sar]K(fluorescein)
modifications: linker 2-7-16 via TATA
B9: BCY15421 (peptide)
peptide: ACPSQYKCWRGKCA[Sar][Sar][Sar][Sar][Sar][Sar]K(fluorescein)
modifications: linker 2-8-13 via TATA
B10: BCY15284 (peptide)
peptide: ACGRQFCHTLMPRHLCA[Sar][Sar][Sar][Sar][Sar][Sar]K(fluorescein)
modifications: linker 2-7-16 via TATA
B11: BCY15420 (peptide)
peptide: ACLELYQCWRGKCA[Sar][Sar][Sar][Sar][Sar][Sar]K(fluorescein)
modifications: linker 2-8-13 via TATA
B12: BCY15423 (peptide)
peptide: ACNAVLCSWARANSFCA[Sar][Sar][Sar][Sar][Sar][Sar]K(fluorescein)
modifications: linker 2-7-16 via TATA
B13: BCY15285 (peptide)
peptide: ACTRPWCHSLLPRATCA[Sar][Sar][Sar][Sar][Sar][Sar]K(fluorescein)
modifications: linker 2-7-16 via TATA
B14: BCY16874 (peptide)
peptide: ACNAVLCSWA[hArg]ANSFCA[Sar][Sar][Sar][Sar][Sar][Sar]K(fluorescein)
modifications: linker 2-7-16 via TATA
B15: BCY16863 (peptide)
peptide: ACNAVLCSWA[Arg(Me)′]ANSFCA[Sar][Sar][Sar][Sar][Sar][Sar]K(fluorescein)
modifications: linker 2-7-16 via TATA

Numbered stars: 1 amine (or outer) side, 2 acyl side, 3 side chain; on linkers, the order of the positions; unused ones are H or OH. Bridge positions count the residues as written; N and C are the ends. Square brackets hold non-standard residues; d marks the D form. Primed or numbered codes have the meaning given here. Ends that are not written are not given here. Arg(Me)′ = delta-N-methyl arginine, CN(CCC[C@H](N[*:1])C(=O)[*:2])C(=N)N; TATA = O=C(CC[*:1])N1CN(C(=O)CC[*:2])CN(C(=O)CC[*:3])C1; 1Nal = N[C@@H](Cc1cccc2ccccc12)C(=O)O; 2Nal = N[C@@H](Cc1ccc2ccccc2c1)C(=O)O; hArg = N=C(N)NCCCC[C@H](N)C(=O)O; Aib = CC(C)(N)C(=O)O; Sar = CNCC(=O)O

Chain of ACE2 protein (Homo sapiens (Human)), Q9BYF1 (Q9BYF1 18-740 limits assumed): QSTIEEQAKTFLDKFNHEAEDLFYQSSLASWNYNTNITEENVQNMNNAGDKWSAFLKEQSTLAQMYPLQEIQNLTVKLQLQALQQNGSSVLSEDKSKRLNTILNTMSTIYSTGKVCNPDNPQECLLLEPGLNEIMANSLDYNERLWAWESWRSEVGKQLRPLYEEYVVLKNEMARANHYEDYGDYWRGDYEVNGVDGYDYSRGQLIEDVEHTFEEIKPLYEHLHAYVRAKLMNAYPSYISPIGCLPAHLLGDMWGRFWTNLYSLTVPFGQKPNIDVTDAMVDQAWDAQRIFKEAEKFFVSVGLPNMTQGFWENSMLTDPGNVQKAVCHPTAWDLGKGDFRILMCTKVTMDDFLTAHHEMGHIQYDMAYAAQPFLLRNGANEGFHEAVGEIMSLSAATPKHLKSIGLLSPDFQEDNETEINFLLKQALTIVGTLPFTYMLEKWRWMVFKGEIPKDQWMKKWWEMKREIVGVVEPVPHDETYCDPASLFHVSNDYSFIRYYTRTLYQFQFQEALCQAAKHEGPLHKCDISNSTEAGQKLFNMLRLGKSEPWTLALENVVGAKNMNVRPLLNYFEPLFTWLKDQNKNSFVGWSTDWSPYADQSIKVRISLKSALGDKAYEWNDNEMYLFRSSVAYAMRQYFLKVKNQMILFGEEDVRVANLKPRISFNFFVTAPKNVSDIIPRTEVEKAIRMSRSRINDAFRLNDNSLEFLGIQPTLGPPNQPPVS

One experiment concerns the target ACE2 protein (Homo sapiens (Human)), Q9BYF1. As to the kind of experiment: fluorescence polarisation direct binding, 1 nM fluorescein tracer, ACE2 titrated. (In fluorescence polarisation assays a small probe gives low polarisation when free and higher when bound to something large.)
The Kd is the equilibrium constant for the complex coming apart. The low end stands for a tighter complex, the high end for a looser complex. B1 returned an equilibrium dissociation constant (Kd) of 2.9 nM.

As for B2, the equilibrium dissociation constant (Kd) was found to be 130 nM.

Consider B3, for which the Kd came to 21.9 nM.

Turning to B4, the dissociation constant Kd was 20.4 nM.

B5 registered a Kd of 2.6 nM.

B6 gave a Kd of 50.7 nM.

The molecule B7 came in with a Kd of 5.8 nM.

B8: the Kd stood at 225 nM.

The molecule B9 displayed a Kd of 134 nM.

Molecule B10 yielded a Kd of 65.5 nM.

With B11, the Kd was found to be 98.3 nM.

The molecule B12 displayed a Kd of 5.53 nM.

Consider B13, for which the Kd came out at 157 nM.

As for B14, the Kd was determined as 62 nM.

In the next experiment the target is Biotinylated Human ACE2, His, Avitag protein (ACROBiosystems, AC2-H82E6) (human), Q9BYF1. As to the kind of experiment: SPR single cycle kinetics, ACE2 captured on CAP chip, peptide analyte; geometric mean.
Chain of Biotinylated Human ACE2, His, Avitag protein (ACROBiosystems, AC2-H82E6) (human), Q9BYF1 (Q9BYF1 18-740 limits assumed): as above
In turn, B1 gave a Kd of 8.9 nM.

In turn, B5 came in with an equilibrium dissociation constant (Kd) of 2.1 nM.

For B7, the Kd stood at 7.7 nM.

In turn, B15 returned a Kd of 3.5 nM. Compared with the last molecule, the Kd is about 2.2-fold lower.

In the case of B12, the dissociation constant (Kd) worked out at 3.4 nM.

B14 gave a Kd of 4.1 nM.

The record behind these values is patent publication US20230183291A1, “ANTI-INFECTIVE BICYCLIC PEPTIDE LIGANDS” (priority 2020, published 2023).
